The target of assay [1] is T1, human OX40 (human, UniProt P43489 29-277).
T1 sequence: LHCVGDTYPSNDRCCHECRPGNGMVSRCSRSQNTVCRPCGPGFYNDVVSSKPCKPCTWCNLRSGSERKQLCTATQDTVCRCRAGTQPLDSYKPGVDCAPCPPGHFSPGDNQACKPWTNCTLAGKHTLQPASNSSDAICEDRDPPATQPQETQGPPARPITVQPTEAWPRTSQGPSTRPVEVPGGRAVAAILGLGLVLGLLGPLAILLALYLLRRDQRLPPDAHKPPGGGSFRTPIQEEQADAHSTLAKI
The experiment in a line: cell-based or functional assay.

Assay [2] has as its target T1, human OX40. The experiment in a line: flow cytometry, binding to activated human T cells.
For another assay, the target named is T2, mouse OX40 (mouse, UniProt P47741 20-272).
T2 construct: whole, on cells; also called murine OX40
T2 sequence (looked up): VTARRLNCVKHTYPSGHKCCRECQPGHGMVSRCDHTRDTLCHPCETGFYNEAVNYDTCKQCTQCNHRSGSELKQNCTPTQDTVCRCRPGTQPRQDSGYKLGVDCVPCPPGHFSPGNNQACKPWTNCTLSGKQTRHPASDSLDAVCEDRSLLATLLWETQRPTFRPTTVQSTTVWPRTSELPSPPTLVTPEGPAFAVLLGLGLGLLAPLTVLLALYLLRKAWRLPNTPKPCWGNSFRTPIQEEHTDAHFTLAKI
The experiment in a line: flow cytometry, binding to activated mouse T cells. (In flow cytometry, cells or beads pass a laser one at a time.)

A further assay addresses T3, cynomolgus OX40 (cynomolgus, UniProt P43489 29-277 (human entry)).
T3 chain: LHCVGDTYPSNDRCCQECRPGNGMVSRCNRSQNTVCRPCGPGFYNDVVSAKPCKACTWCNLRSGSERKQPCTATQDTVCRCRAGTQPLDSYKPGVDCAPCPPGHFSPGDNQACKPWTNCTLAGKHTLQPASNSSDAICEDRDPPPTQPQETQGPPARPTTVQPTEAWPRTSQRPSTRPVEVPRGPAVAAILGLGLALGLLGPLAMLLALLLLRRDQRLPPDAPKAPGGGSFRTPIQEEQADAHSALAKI
The assay is described as follows: flow cytometry, binding to activated cynomolgus T cells.

Assay [3] concerns the target T1, human OX40. The assay is described as follows: Flow cytometry receptor occupancy on human CD4+ T cells cultured with CHO-OKT3-CD32A cells.
Assay [4] concerns the target T1, human OX40. The description is as above. This is another data set of the same source.
Assay [5] addresses T1, human OX40. The assay is described as follows: Flow cytometry on human CD4+ T cells cultured with CHO-OKT3-CD32A cells; bound OX40.21 detected with APC anti-human Fc. Total surface OX40 changes along the same titration. As to the method: Briefly, total T cells were purified from human whole blood using Ficoll gradient centrifugation. CD4+ T cells were isolated from PBMCs using the Miltenyi CD4+ isolation kit. Isolated T cells were cultured in the presence of irradiated CHO-OKT3-CD32A (artificial antigen presenting cells) and in the presence of serial dilutions of OX40.21 or isotype control. Receptor occupancy was determined as the ratio of bound OX40 antibody to total surface OX40 using flow cytometry. Bound antibody was assessed by adding fluorescent conjugated anti-human Fc after washing the T cells. Total OX40 was determined by adding a saturating amount of OX40 antibody to the T cells. Following incubation, cells were washed and stained by adding fluorescent conjugated anti-human FC.

The target in assay [6] is T1, human OX40. The assay is described as follows: Emax PK-PD model: trough serum concentration (Cmin1) against blood receptor occupancy on CD4+ T cells at C2D1, 16 cancer patients, flow cytometry; in vivo blood receptor occupancy vs trough serum concentration (Cmin1), Emax PK-PD model; not an in vitro titration. An excerpt:
(§1) This Example describes a PK-PD model for predicting receptor occupancy in human patients. The drug concentration-time profile was described by a linear two-compartment PK model using population PK analysis. […] The individual drug exposure (Cmin1: trough concentration after first dose) in the alternative dose schedule was predicted based on the PPK model, which was used in subsequent PK-PD model development.
(§2) wherein drug concentration is Cmin1, the trough concentration after first dose, ROₘₐₓ is the maximum percentage of blood RO and EC₅₀ is the drug concentration corresponding to 50% of ROₘₐₓ. From this analysis, the drug EC₅₀ was estimated to be 0.094 μg/mL (FIG. 8B). The trial […] was conducted to predict blood RO at alternative dosing schedules by using the established PK-PD relationship (Emax model), as well as taking into account inter-subject variability of PK and PD (FIG. 9).

Assay [7] concerns the target T1, human OX40. The experiment in a line: Emax model (RO = Emax x Cmin1 / (EC50 + Cmin1)) of the trough concentration after the first dose against peripheral blood RO on CD4+ T cells at C2D1 in patients. The text prints the value rounded, 0.094 ug/mL. No Emax value is printed; the median curve runs from about 92 % at 20 mg to about 99 % at 320 mg.
Excerpt: as §1, §2

This note sets out measurements from patent US20200369777A1 (Bristol-Myers Squibb, published 2020).

B1: OX40.21 (antibody, human IgG1, kappa, V domains shown)
VH: EVQLVQSGGGLVQPGGSLRLSCAGSGFTFSSYAMYWVRQAPGKGLEWVSAIDTDAGTFYADSVRGRFTISRDNAKNSLYLQMNSLRAEDTAVYFCARLGEGYFFDYWGQGTLVTVSS
VL: EIVLTQSPATLSLSPGERATLSCRASQSVSSYLAWYQQKPGQAPRLLIYDASNRATGIPARFSGSGSGTDFTLTISSLEPEDFAVYYCQQRSNWPPTFGGGTKVEIKR
notes: also called OX40.21 (human)
Regarding B1, in the assay with human OX40 [1], the “EC50 of internalization (mean circle spot total intensity) in CD3/CD28-activated Tregs. The table prints no unit; the axis is 'Log nM Ab'” value is 0.0779 nM. Moreover, the EC50 came to 0.072 nM with human OX40 [2], 0.068 nM with cynomolgus OX40, 0.094 µg/mL with human OX40 [6] and 0.0937 µg/mL in the assay with human OX40 [7]. The binding result with mouse OX40 is listed as “no binding”. Moreover, the “EC50 (read off the curve)” value with human OX40 [3] was about 0.3 nM; in the assay with human OX40 [4], about 0.3 nM; in the assay with human OX40 [5], about 0.1 nM.

One may read the EC50 as the concentration giving half of the maximal effect. In general, EC50 (read off the curve) refers to the concentration giving half of the maximal effect.
